Data as given in publication PMC6680903 (Molecules, 2019).
Values belong to the binder of their own block, whether it stands above or below them.

Assays:
Settings in all cases: both partners purified
BSA = biological target: T1, BSA (Bos taurus, UniProt P02769); test: laser scanning confocal fluorescence imaging of protein-coated beads; β2M or BSA coupled to CNBr-activated Sepharose 4 Fast Flow beads; incubated with labeled NB-1 (10 μg/mL in PBS) 5 min at room temperature; washed five times with PBS; FV1000 microscope
T1 construct: BSA (bovine serum albumin); also called negative control - BSA
T1 sequence (P02769 25-607): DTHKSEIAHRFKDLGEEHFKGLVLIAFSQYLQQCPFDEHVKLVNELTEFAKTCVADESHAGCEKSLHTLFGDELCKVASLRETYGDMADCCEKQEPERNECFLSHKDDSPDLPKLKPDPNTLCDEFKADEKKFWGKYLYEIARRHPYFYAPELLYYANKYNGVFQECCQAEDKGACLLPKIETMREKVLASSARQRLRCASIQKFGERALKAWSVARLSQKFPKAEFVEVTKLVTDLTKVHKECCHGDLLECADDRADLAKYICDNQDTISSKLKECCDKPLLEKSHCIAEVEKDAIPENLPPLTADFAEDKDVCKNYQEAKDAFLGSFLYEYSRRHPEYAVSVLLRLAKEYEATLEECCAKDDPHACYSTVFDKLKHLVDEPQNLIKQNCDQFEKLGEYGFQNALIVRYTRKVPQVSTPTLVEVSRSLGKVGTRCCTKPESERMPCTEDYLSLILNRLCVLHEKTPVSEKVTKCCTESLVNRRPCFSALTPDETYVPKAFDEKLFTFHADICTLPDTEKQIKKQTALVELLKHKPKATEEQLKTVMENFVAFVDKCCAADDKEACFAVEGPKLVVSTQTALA

β2-Microglobulin (β2M) [1] = biological target: T2, β2-Microglobulin (β2M) (Homo sapiens, UniProt P61769); test: SPR; Biacore T200; β2M immobilized on a CM5 chip to 150 RU; 2-fold serial diluted VHH at 30 μL/min in HBS-EP+; 25 °C; 1:1 binding model; VHH samples after incubation with NHS-Fluo at molar ratio 0 (negative control), 1, 5 or 20 and ultrafiltration
T2 construct: β2-microglobulin, human (the title says anti-human β2-microglobulin VHHs); Probably the mature protein without the signal peptide (surmised); also called antigen β2M; human β2-microglobulin; source: expressed and purified as previously described [27]

β2-Microglobulin [2] = biological target: T3, β2-Microglobulin (Homo sapiens, UniProt P61769); test: SPR; Biacore T200; β2M immobilised on a CM5 chip to 150 RU; VHH samples after the modification procedure (NHS-Fluo:VHH 0, 1, 5 or 20; 2 h at 4 °C, ultrafiltration) in 2-fold serial dilution, 30 μL/min, HBS-EP+, 25 °C; 1:1 model with drift and RI2
T3 construct: human β2-microglobulin; Amine-coupled to a CM5 chip (150 RU); also called antigen β2M; source: expressed and purified as previously described [27]

β2-Microglobulin (β2M) [3] = biological target: T2, β2-Microglobulin (β2M); test: SPR; Biacore T200; β2M immobilized on a CM5 chip to 150 RU; 2-fold serial diluted VHH at 30 μL/min in HBS-EP+; 25 °C; 1:1 binding model; VHH sample 'origin' without modification or other treatment
β2-Microglobulin [4] = biological target: T3, β2-Microglobulin; test: SPR; Biacore T200; β2M immobilised on a CM5 chip to 150 RU; VHH samples 'Origin' (no treatment) in 2-fold serial dilution, 30 μL/min, HBS-EP+, 25 °C; 1:1 model with drift and RI2

B2: NB-1 modified with 20 times of NHS-Fluo (VHH)
VHH: QVQLVESGGGLVQAGGSLRLSCAASGSTLDSYYIGWFRQAPGKEREGVSCISSSGNSIRYVDSVKDRFTISRDNGKNTAYLHINSLRPEDTAVYYCAASRRGRKPGLPCSLVRERYAYWGQGTQVTVSS
notes: as the VHH domain of Dm2; flexible (G4S)4 linker between the VHH domain and the His6 tag, written out from '(G4S)4'; also called NB-1-20; labeled NB-1; source: E. coli SHuffle T7, purified (HisTrap HP), modified with NHS-Fluo, ultrafiltration
koff (β2-Microglobulin [2]): 0.00863 s⁻¹
kon (β2-Microglobulin [2]): 29000 M⁻¹ s⁻¹

B3: NB-1 modified with 5 times of NHS-Fluo (VHH)
VHH: B2 VHH
notes: as the VHH domain of Dm2; flexible (G4S)4 linker between the VHH domain and the His6 tag, written out from '(G4S)4'; A mixture of isomers with different numbers and places of fluorescein; also called NB-1-5; source: E. coli SHuffle T7, purified (HisTrap HP), modified with NHS-Fluo, ultrafiltration
Kd (β2-Microglobulin [2]): 202 nM
koff (β2-Microglobulin [2]): 0.00843 s⁻¹
kon (β2-Microglobulin [2]): 41800 M⁻¹ s⁻¹

B4: NB-1 (anti-β2M VHH, unmodified), VHH-(G4S)4-His6 (VHH)
VHH: B2 VHH
notes: VHH domain of NB-1; flexible (G4S)4 linker between the VHH domain and the 6xHis-tag, written out from the printed formula; Homology model built on template PDB 4KDT (GMQE 0.99); also called NB-1-origin; NB-1-0; source: E. coli SHuffle T7, purified (HisTrap HP)
Kd (β2-Microglobulin (β2M) [3]): 60 nM
Kd (β2-Microglobulin (β2M) [1]): 138 nM

B5: NB-1 modified with 1 time of NHS-Fluo (VHH)
VHH: B2 VHH
notes: as the VHH domain of Dm2; flexible (G4S)4 linker between the VHH domain and the His6 tag, written out from '(G4S)4'; A mixture of isomers with different numbers and places of fluorescein, unmodified VHH among them; also called NB-1-1; source: E. coli SHuffle T7, purified (HisTrap HP), modified with NHS-Fluo, ultrafiltration
Kd (β2-Microglobulin [2]): 177 nM
koff (β2-Microglobulin [2]): 0.00761 s⁻¹
kon (β2-Microglobulin [2]): 43000 M⁻¹ s⁻¹

B6: NB-3 (VHH)
VHH: QVQLVESGGGLVQPGGSLRLSCAASGFSLDYYAIGWFRQAPGKEREGVSCISSSDDSTYYAGSVKGRFKISRDNAKSTVYLQMNSLKPEDSAVYYCAALHSGNYYYTPSYICDAEMDYWGKGTLVTVSS
notes: VHH domain of NB-3; flexible (G4S)4 linker between the VHH domain and the His6 tag, written out from '(G4S)4'; VHH-(G4S)4-His6; Template of the homology model: PDB 5J56 (GMQE 0.93). 'Origin' = no treatment; '0' = negative control; also called NB-3-Origin; NB-3-0; source: E. coli SHuffle T7, purified (HisTrap HP)
koff (β2-Microglobulin [2]): 0.00165 s⁻¹
kon (β2-Microglobulin [2]): 1310 M⁻¹ s⁻¹
Kd (β2-Microglobulin [4]): 525 nM
koff (β2-Microglobulin [4]): 0.00154 s⁻¹
kon (β2-Microglobulin [4]): 2940 M⁻¹ s⁻¹

Results, then the binder that gave them:

binding result (BSA): no binding (tested: 10 μg/mL)
Kd (β2-Microglobulin (β2M) [1]): 297 nM
B1: NB-1 modified by a 20 fold amount of NHS-Fluo (VHH)
VHH: B2 VHH
notes: VHH domain as in m2 (NB-1); flexible (G4S)4 linker between the VHH domain and the 6xHis-tag, written out from the printed formula; also called labeled NB-1; modified NB-1; source: E. coli SHuffle T7, purified (HisTrap HP), then modified with NHS-Fluo (2 h, 4 °C), ultrafiltration

Kd (β2-Microglobulin [2]): 3490 nM
koff (β2-Microglobulin [2]): 0.00297 s⁻¹
kon (β2-Microglobulin [2]): 849 M⁻¹ s⁻¹
B7: NB-3 modified with 1 time of NHS-Fluo (VHH)
VHH: B6 VHH
notes: as the VHH domain of Dm10; flexible (G4S)4 linker between the VHH domain and the His6 tag, written out from '(G4S)4'; A mixture of isomers with different numbers and places of fluorescein; also called NB-3-1; source: E. coli SHuffle T7, purified (HisTrap HP), modified with NHS-Fluo, ultrafiltration

Kd (β2-Microglobulin [2]): 6620 nM
koff (β2-Microglobulin [2]): 0.00369 s⁻¹
kon (β2-Microglobulin [2]): 558 M⁻¹ s⁻¹
B8: NB-3 modified with 5 times of NHS-Fluo (VHH)
VHH: B6 VHH
notes: as the VHH domain of Dm10; flexible (G4S)4 linker between the VHH domain and the His6 tag, written out from '(G4S)4'; A mixture of isomers with different numbers and places of fluorescein; also called NB-3-5; source: E. coli SHuffle T7, purified (HisTrap HP), modified with NHS-Fluo, ultrafiltration

Kd (β2-Microglobulin (β2M) [1]): 1260 nM
fold increase of KD against the sample without any treatment (β2-Microglobulin (β2M) [1]): ~2 fold
B9: NB-3 (anti-β2M VHH, unmodified), VHH-(G4S)4-His6 (VHH)
VHH: B6 VHH
notes: VHH domain of NB-3; flexible (G4S)4 linker between the VHH domain and the 6xHis-tag, written out from the printed formula; Homology model built on template PDB 5J56 (GMQE 0.93), a template only; also called NB-3-origin; NB-3-0; source: E. coli SHuffle T7, purified (HisTrap HP)

Kd (β2-Microglobulin (β2M) [1]): 14100 nM
B10: NB-3 modified by a 20 fold amount of NHS-Fluo (VHH)
VHH: B6 VHH
notes: VHH domain as in m6 (NB-3); flexible (G4S)4 linker between the VHH domain and the 6xHis-tag, written out from the printed formula; Heterogeneous product of random amino modification; also called modified NB-3; NB-3 20:1; source: E. coli SHuffle T7, purified (HisTrap HP), then modified with NHS-Fluo (2 h, 4 °C), ultrafiltration

koff (β2-Microglobulin [2]): 0.00402 s⁻¹
kon (β2-Microglobulin [2]): 286 M⁻¹ s⁻¹
B11: NB-3 modified with 20 times of NHS-Fluo (VHH)
VHH: B6 VHH
notes: as the VHH domain of Dm10; flexible (G4S)4 linker between the VHH domain and the His6 tag, written out from '(G4S)4'; A mixture of isomers with different numbers and places of fluorescein; also called NB-3-20; source: E. coli SHuffle T7, purified (HisTrap HP), modified with NHS-Fluo, ultrafiltration
